Target: T1, hUHRF1 tandem tudor domain, 10xHIS-TEV-TTD (aa 126-285) (human, UniProt Q96T88-1 126-285)
T1 sequence (looked up): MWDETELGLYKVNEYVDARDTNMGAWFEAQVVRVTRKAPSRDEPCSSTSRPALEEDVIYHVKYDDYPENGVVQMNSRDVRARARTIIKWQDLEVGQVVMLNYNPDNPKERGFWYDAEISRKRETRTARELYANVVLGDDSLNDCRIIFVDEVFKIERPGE
Test: MST

binding result: binds
B1: hUHRF1 Linker 4 (aa 605-675)-6xHIS (domain or fragment, human, UniProt Q96T88-1 605-675, looked up)
chain: MQYPEGYLEALANREREKENSKREEEEQQEGGFASPRTGKGKWKRKSAGGGPSRAGSPRRTSKKTKVEPYS
